The source of these data is patent US20260183411A1, “TARGETING SORTILIN” (priority 2024, published 2026).

Bridges are numbered along the chain shown (N, C = ends). Where no end group is shown, it is not given here. [ ]: non-standard residue; d: D form. conjugation handle = not defined here; tBuAla = CC(C)(C)C[C@H](N)C(=O)O; Tle = CC(C)(C)[C@H](N)C(=O)O; Nle = CCCC[C@H](N)C(=O)O

One may read the Kd as a measure of binding affinity in units of concentration.

Test [1] deals with T1, rat SORT1 (76-752)-His (rat, UniProt O54861 76-752).
T1 construct: range 76-752; Amine-coupled to CM5 chip for SPR
T1 sequence (looked up): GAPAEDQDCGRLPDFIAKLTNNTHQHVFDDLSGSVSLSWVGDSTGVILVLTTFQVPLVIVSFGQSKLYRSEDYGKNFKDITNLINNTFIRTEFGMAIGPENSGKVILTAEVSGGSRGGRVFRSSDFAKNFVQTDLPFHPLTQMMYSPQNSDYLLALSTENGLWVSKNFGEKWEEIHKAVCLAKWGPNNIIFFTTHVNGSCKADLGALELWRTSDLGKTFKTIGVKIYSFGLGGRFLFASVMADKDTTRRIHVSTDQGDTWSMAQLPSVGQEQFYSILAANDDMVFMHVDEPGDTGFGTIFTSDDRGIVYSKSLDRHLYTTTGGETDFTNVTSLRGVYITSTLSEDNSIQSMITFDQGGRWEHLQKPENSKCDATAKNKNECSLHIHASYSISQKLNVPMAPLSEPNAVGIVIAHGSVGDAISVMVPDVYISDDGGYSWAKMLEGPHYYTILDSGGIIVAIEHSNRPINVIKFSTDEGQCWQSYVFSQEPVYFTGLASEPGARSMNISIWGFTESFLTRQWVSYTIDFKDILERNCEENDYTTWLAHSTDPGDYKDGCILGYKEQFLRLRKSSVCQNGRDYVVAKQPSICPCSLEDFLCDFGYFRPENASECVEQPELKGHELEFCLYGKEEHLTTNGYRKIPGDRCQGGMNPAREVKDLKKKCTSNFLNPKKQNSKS
Kind of test: SPR (Biacore 8K), SORT1 on CM5 chip, unconjugated peptide with conjugation handles as analyte, 1:1 model. How it is done: (§1) SPR analysis was performed on Series S CM5 chips (Cytiva) using a Biacore 8K instrument (Cytiva). Sensorgrams were double-referenced by subtracting the response on both a reference flow cell and a blank sample. Human SORT1 (78-755)-His (Acrobiosystems), human SORT1 (78-755)-His(GenScript), mouse SORT1 (76-753)-His (R&D Systems), rat SORT1 (76-752)-His (GenScript), and cyno SORT1 (76-753)-His (GenScript) were diluted to 20-60 μg/mL in 10 mM sodium acetate pH 4.5 buffer and immobilized onto Series S CM5 chips using amine coupling at a flow rate of 10 μL/min for 45-100 s.
(§2) Ten start-up cycles and a blank cycle preceded each analysis run. The runs were performed by sequential injections of analyte (0-20 nM, 3-fold serial dilutions) with a 90 s association and 900 s dissociation at a flow rate of 30 μL/min, followed by two regeneration cycles with 2 M MgCl2 for 90 s at a flow rate of 10 μL/min. […] Five start-up cycles and a blank cycle preceded each analysis run. The runs were performed by sequential injections of analyte (0-25 nM) with a 150 seconds (s) association and 300 s dissociation at a flow rate of 30 μL/min, followed by a regeneration with 2 M MgCl₂ for 200 s at a flow rate of 10 μL/min. The kinetic rate constants (kₐ and kd) and the equilibrium binding constant (Kd) were calculated using a 1:1 kinetic binding model on the Biacore Insight Evaluation Software (Cytiva).
(§3) SPR analysis was performed on Series S CM5 chips (Cytiva) using a Biacore 8K instrument (Cytiva). Sensorgrams were double-referenced by subtracting the response on both a reference flow cell and a blank sample. The SPR analysis was conducted using four different SORT1 species: Human SORT1, Mouse SORT1, Rat SORT1, and Cyno SORT1. The samples were prepared according to the general procedure described above herein. The kinetic rate constants (ka and […]) and the equilibrium binding constant (Kd) were calculated using a 1:1 kinetic binding model on the Biacore Insight Evaluation Software (Cytiva).
(In general: SPR reads the build-up and loss of mass on a sensor chip optically.)

Test [2] has as its target T2, Human SORT1 (78-755)-His (human, UniProt Q99523 78-755).
T2 construct: range 78-755; Amine-coupled to CM5 chip for SPR; Two suppliers are named (Acrobiosystems, GenScript)
T2 sequence (looked up): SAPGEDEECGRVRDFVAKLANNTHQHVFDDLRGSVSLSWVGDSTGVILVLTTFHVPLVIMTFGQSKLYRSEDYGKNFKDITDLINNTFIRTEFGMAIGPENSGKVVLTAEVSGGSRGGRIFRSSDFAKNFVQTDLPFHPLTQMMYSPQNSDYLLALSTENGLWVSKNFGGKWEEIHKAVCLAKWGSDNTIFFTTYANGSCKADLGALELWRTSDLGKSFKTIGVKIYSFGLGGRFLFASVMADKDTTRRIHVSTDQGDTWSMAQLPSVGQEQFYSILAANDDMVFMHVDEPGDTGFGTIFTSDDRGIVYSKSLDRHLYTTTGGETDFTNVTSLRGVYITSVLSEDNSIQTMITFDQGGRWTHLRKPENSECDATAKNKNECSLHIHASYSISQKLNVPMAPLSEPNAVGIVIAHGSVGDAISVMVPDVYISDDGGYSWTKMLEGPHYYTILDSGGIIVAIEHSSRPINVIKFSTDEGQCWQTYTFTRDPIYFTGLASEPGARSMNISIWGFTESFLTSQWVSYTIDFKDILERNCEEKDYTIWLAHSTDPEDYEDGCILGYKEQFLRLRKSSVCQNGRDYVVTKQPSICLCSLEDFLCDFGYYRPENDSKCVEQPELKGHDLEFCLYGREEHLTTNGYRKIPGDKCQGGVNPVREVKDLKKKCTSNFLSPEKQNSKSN
The description is as above. As to the method:
as §1, §2, §3

The target in test [3] is T3, cyno SORT1 (76-753)-His (cyno, UniProt A0A2K5VHG2 74-751).
T3 construct: range 76-753; Amine-coupled to CM5 chip for SPR
T3 sequence: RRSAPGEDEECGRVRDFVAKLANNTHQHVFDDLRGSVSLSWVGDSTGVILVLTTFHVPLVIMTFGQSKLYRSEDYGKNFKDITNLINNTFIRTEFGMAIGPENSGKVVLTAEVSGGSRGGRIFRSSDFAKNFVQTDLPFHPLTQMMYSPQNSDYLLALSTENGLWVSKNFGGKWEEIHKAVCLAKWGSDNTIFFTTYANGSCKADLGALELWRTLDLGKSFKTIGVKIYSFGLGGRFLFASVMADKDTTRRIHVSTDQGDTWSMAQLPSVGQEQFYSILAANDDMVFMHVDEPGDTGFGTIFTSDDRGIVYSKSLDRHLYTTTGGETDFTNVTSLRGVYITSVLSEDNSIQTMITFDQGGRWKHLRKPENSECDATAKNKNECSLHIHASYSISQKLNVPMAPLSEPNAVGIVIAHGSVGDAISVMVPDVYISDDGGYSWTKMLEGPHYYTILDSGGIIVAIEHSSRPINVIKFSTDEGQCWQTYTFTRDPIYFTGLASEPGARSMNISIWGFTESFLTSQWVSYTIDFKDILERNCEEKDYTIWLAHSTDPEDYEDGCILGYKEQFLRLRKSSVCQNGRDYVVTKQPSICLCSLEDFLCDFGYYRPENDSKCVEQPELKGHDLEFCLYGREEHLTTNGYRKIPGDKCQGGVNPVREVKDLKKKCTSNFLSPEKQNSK
The test is described as above. How it is done:
as §1, §2, §3

Test [4] has as its target T4, SORT1 (Sortilin), Acrobiosystems SON-H52H5 (human, UniProt Q99523 78-755, biotinylated 1:1 with NHS-PEG4 Biotin when immobilised in the protein-loaded GCI format).
T4 construct: Used in FP, GCI and the peptide microarray; also called SORT1-Ag; SORT1 antigen
T4 sequence (looked up): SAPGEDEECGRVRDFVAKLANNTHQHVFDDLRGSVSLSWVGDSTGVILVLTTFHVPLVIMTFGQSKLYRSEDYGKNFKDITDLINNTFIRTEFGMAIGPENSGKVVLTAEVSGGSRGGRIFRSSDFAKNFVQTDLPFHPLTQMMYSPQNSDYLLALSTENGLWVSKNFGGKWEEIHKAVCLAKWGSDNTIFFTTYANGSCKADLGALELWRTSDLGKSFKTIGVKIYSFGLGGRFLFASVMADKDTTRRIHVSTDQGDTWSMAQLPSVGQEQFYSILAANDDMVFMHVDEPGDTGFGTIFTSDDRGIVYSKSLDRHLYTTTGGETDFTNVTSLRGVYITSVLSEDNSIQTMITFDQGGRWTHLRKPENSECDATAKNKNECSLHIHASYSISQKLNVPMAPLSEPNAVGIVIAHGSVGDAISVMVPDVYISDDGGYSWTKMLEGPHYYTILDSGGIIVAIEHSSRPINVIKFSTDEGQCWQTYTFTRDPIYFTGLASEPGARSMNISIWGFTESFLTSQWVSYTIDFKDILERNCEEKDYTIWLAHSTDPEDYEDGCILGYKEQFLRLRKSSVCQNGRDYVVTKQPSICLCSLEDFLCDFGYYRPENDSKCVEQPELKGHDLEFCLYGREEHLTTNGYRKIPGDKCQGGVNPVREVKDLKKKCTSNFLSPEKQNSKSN
Briefly: fluorescence polarization, direct titration of the FAM-labelled peptide with SORT1.
Protocol: A 12-point, two-fold dilution series of target protein was prepared in a V-bottom 96-well plate for a total volume of 25 μL.
A 10× working solution of FAM-labeled peptides was prepared in the FP buffer (1×PBS, pH 7.4, 0.1% Tween-20). An aliquot of 2.5 μL of the 10× working solution of the FAM-labeled peptides was then added to 22.5 μL of the SORT1 dilution series and pipetted to mix in a V-bottom 96-well plate. A negative control with no target protein was also prepared to assess baseline polarization of the FAM-labeled peptides. […] The data was then fitted to a One Site-Specific Binding curve in GraphPad to calculate the KD.

B1: SORT1 peptide 3 (w/conjugation handles), unconjugated (peptide)
peptide: RWCENK(conjugation handle)R[Nle]FTCRQ[Tle][tBuAla]
modifications: disulfide 3-11 (inferred); reading uncertain; also: K6 conjugation handle not given here, printed as RWCENKR(Nle)FTCRQ(B13)(F02)
As for B1, the Kd in test [1] came out at 1160 pM; in test [2], 168 pM; in test [3] it was 191 pM.

As for {FAM}-QRLARLPRDLLAWPPAD-OH (also called negative control peptide) [PRGN_scr], the binding result in test [4] is reported as “no binding”.
